{"source": "paper PMC6212828", "key": {"[1]": {"system": "Fur (Bacillus subtilis)", "experiment": "EMSA", "conditions": "EMSA with 1 mM MnCl2; ~1 fmol 32P-labelled probe (B, C) or ~180 ng DNA with ethidium bromide stain, 5% native PAGE (A); remaining buffer, pH and temperature …"}, "[2]": {"molecular_target": "T1, Fur (Bacillus subtilis) (UniProt P54574)", "T1 sequence": "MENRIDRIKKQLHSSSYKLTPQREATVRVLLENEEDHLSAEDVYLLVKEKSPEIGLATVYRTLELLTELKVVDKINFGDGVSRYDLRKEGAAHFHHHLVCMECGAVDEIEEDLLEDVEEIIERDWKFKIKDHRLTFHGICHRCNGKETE", "experiment": "EMSA", "conditions": "EMSA with 1 mM MnCl2; ~1 fmol 32P-labelled probe (B, C) or ~180 ng DNA with ethidium bromide stain, 5% native PAGE (A); remaining buffer, pH and temperature …"}}}
{"substance": "catD ORF probe (+137 to +278)", "values": [{"measurement": "binding", "setting": "[1]", "result": "> 2", "unit": "µM"}]}
{"substance": "catD promoter probe (-121 to +76)", "values": [{"measurement": "Kd", "setting": "[1]", "result": 700, "unit": "nM"}]}
{"substance": "catD promoter 323-bp HindIII fragment (-155 to +168)", "values": [{"measurement": "K half", "setting": "[1]", "result": 500, "unit": "nM"}]}
{"substance": "TAGACCTTTGTCCTGCACAGAGGTCTTTTTTTGTTACAGTTTTATAGTACTTTTATTTCATTTTCGTAAAATGTAACAAAATTACTTGACGTAAACAAGTTATGTATATATACTAGCTTACATTAAGTAAGTGATAACATTTATCAAGGAGGATAAAATGAATAAATCATTTGAAATTGGCACATTACTTTTAAGAG (double strand) [catD promoter probe (-121 to +76)]", "values": [{"measurement": "Kd", "setting": "[2]", "result": 700, "unit": "nM"}]}
{"substance": "catD ORF 218-bp HindIII fragment (+169 to +386)", "values": [{"measurement": "binding", "setting": "[1]", "result": "> 3", "unit": "µM"}]}
